# Source: patent publication US20220073643A1 (NANJING GENSCRIPT BIOTECH, published 2022)
# Changes are numbered by the printed parent chain.
# B1: 201F4H6 (antibody, V domains shown)
# VH: QVQLKESGPGLVAPSQSLSITCTVSGFSLTSYGVSWVRQPPGKGLECLGVIWAGGNTNYNSALMSRLSISKDKSKSQVFLKMNSLQTDDTAMYYCARVYYGNAMDYWGQGTSVTVSS
# VL: DIVMTQSPSSLTVTAGEKVTMSCKSSQSLLNSGNQKSYLTWYQQRPGQPPKLLIYWASTRESGVPDRFTGSGSGTDFTLTISSVQAEDLAVYFCQNVYFFPFTFGSGTKLETK
# B2: 406G3C4 (antibody, V domains shown)
# VH: EIQLQQSGPELMKPGASVRISCKASGYSFISYYIYWVKQSHGKGLEWIGYIDPFNGNTNYNQKFKGKATLTVDRSSSTAYIHLNSLTSEDSAVYYCAIVNGYGRGAMDYWGQGTSVTVSS
# VL: QIVLTQSPAIMSASPGEKVTMTCSASSSISYMHWYQQKSGTSPKRWIYDTSKLASGVPARFSGSGSGTSYSLTISSMEAEDAATYYCQQWSSNPLTFGDGTKLELK
# B3: 393C2C5 (antibody, V domains shown)
# VH: DVQLVESGGGLVQPGGSRKLSCAASGFTFSSFGMHWVRQAPEKGLEWVAYISSGSSPIYYADTVKGRFTISRDNPKNTLFLQMTSLRSEDTAMYFCATFYYGNSFAYWGQGTLVTVSA
# VL: DIVMTQSPSSLTVTAGEKVTMSCKSSQTLLNSGNQKNYLTWYQQKSGQPPKLLIYWASTRESGVPDRFTGSGSGTDFTLTISSVQAEDLAVYYCQNAYSYPVTFGSGTKVELK
# B4: 410D9G2 (antibody, V domains shown)
# VH: B3 VH with S31G, V37I, A40T, S56R, K65Q, T98R, A106D, Y107H, A118S
# VL: B3 VL with S10F, T28S, S46P, V91L, Y100F, V102L, S106A, V110L
# B5: 409G10G6 (antibody, V domains shown)
# VH: B3 VH with S31G, V37I, A40T, G54D, S56R, A97G, T98R, A106D, Y107H
# VL: DIVMTQSPSFLTVTAGEKVTLSCRSSQSLLNSGNQRNYLTWYQQKPGQPPKLLIYWASTRESGVPDRFTGSGSGTDFTLTISSVQAEDRALYYCQNAYSFPLTFGTGTKLELR
# B6: 395B3C11 (antibody, V domains shown)
# VH: B3 VH with S31G, V37I, A40T, S56R, K65Q, T98R, A106D, Y107H, A118S
# VL: B5 VL with L21M, R24K, R36K, R89L, T106A, R113K
# B7: 413B1C9 (antibody, V domains shown)
# VH: B3 VH with T98R, A106D, Y107H
# VL: DIVMTQSPSSLTVTTGEKVSMSCKSSQSLFNRGNQKSYLTWYQQKPGQPPKLLIYWASTRESGVPDRFTGSGSGTDFTLTISSVQAEDLAVYYCQNNYIYPLTFGAGTKLELK
# B8: 411G3E10 (antibody, V domains shown)
# VH: B3 VH with S31G, V37I, A40T, S56R, T98R, A106D, Y107H
# VL: B5 VL with L21M, S22N, R36K, R89L, T106A, R113K
# B9: 411B4G4 (antibody, V domains shown)
# VH: B3 VH with S31G, M34L, V37I, A40T, S56R, T98R, A106D, Y107H
# VL: B5 VL with L21M, R89L, T106A, R113K
# B10: 407D8G1 (antibody, V domains shown)
# VH: B3 VH with S31G, V37I, A40T, S56R, K65Q, T98R, A106D, Y107H, A118S
# VL: B5 VL with L21M, R24K, R36K, R89L, T106A, R113K
# B11: 409D1A7 (antibody, V domains shown)
# VH: B3 VH with S31G, V37I, A40T, S56R, Q82H, T98R, A106D, Y107H
# VL: B5 VL with L21M, S22N, R24K, R89L, T106A, R113N
# B12: 413C12F8 (antibody, V domains shown)
# VH: B3 VH with S31G, M34V, V37I, A40T, S52G, S56R, T98R, A106D, Y107H
# VL: B5 VL with L21M, S22N, R36K, K45R, R89L, T106A, R113K
# B13: 411A6E3 (antibody, V domains shown)
# VH: B3 VH with S31D, V37I, A40T, S56R, A97V, T98R, Y101F, A106D, Y107H
# VL: B5 VL with L21M, S22T, S28N, Q35L, R36K, Y55S, A86P, R89L, T106A, R113K
# B14: 394C2G5 (antibody, V domains shown)
# VH: B3 VH with S31G, V37I, A40T, I51V, S56R, T98R, A106D, Y107H
# VL: B5 VL with L21M, R24K, R36K, S82N, S83N, R89L, T106A, R113T
# B15: 414H6G2 (antibody, V domains shown)
# VH: B3 VH with S31G, V37I, A40T, P41A, S56R, K65Q, T98R, A106D, Y107H
# VL: B5 VL with L21M, R24K, R36K, R89L, T106A, R113K
# B16: 406F11G8 (antibody, V domains shown)
# VH: B3 VH with P75S, T98R, F99I
# VL: B3 VL with T20A, S46P, S99Y, V102L, V110L
# B17: 407H12E6 (antibody, V domains shown)
# VH: B3 VH with F29V, M93I, T98R, A106D, Y107H
# VL: B1 VL with A15T, S37N, R45K, P49S, A86T, V97N, F102L, S106A, T112L
# B18: 410A9A9 (antibody, V domains shown)
# VH: B3 VH
# VL: B3 VL
# B19: 412B6E4 (antibody, V domains shown)
# VH: B3 VH with M34V, P57T, D62H, T63S, R87G, M93T, F95Y, T98R
# VL: B3 VL with T28S, S46P, L52M, S99T, V102L, S106A, K109R, V110L
# B20: 407A8G10 (antibody, V domains shown)
# VH: B3 VH with S31G, V37I, A40T, S56R, T98R, A106D, Y107H
# VL: B5 VL with L21M, T78A, R89L, T106A, R113K
# B21: 411G12G1 (antibody, V domains shown)
# VH: B3 VH with S31G, V37I, S56R, T98R, A106D, Y107H
# VL: B5 VL with L21M, R24K, R36K, R89L, L91V, A97D, T106A, R113K
# B22: 414A5F7 (antibody, V domains shown)
# VH: B3 VH with T98R, F99I
# VL: B3 VL with T20A, S46P, I54L, S99Y, V102L, V110L
# B23: 407E11H8 (antibody, V domains shown)
# VH: B3 VH with S31D, V37I, A40T, S56R, A97V, T98R, Y101F, A106D, Y107H
# VL: B5 VL with L21M, S22T, S28N, Q35L, R36K, Y55S, A86P, R89L, T106A, R113K
# B24: 410H6H3 (antibody, V domains shown)
# VH: B3 VH with Q3L, F32S, S56N, P57T, V64L, F95Y, T98R, F99I, A106V
# VL: B7 VL with T15A, S20I, F30L, R32S, S37N, L52M, T69R, I99Y, A106T, E111A
# B25: 203A6C9 (antibody, V domains shown)
# VH: QVQLKQSGPGLVQPSQSLSITCTVSGFSLTRYGVHWVRQSPGKGLEWLGVIWSGGNTDYNAAFISRLNIRKDNSKSQVFFKMNSLKPNDTAIYYCARAAYFGNSFDYWGQGTTLTVSS
# VL: B7 VL with T12P, T15A, S20T, F30L, R32S, S37N, E61D
# B26: 405G8F11 (antibody, V domains shown)
# VH: B3 VH with A23V, A24T, T84S, T98R
# VL: B3 VL with S22N, T28S, S46L, I54M, Y93F, N96S, Y98F, V102L, S106A, V110L
# B27: 406E1H7 (antibody, V domains shown)
# VH: B3 VH with S31G, V37I, A40T, S56R, K65Q, T98R, A106D, Y107H, A118S
# VL: B5 VL with L21M, R24K, R36K, R89L, T106A, R113K
# B28: 200A4H8 (antibody, V domains shown)
# VH: B25 VH
# VL: B7 VL with T12P, T15A, S20T, F30L, R32S, S37N, E61D
# B29: 392C2F10 (antibody, V domains shown)
# VH: EVQLQQSGPELVKPGASMKISCKASGYSFTGYTMNWVKQSLGKNLEWIGLINPFNGGTTYNQKFKGKATLTVDKSSSTAYMELLSLTSDDSAVYYCTRGDYWGQGTTLTVSS
# VL: DIVMTQSPSSLTVTAGEKVTMSCKSSQSLLNSGNQKNYLTWYQQKPGQPPKLLIYWASTRESGVPDRFAGSGSGTDFTLTISSVQAEDLAVYYCQSDYSYPTFGAGTKLELK
# Biological target: human Claudin18.2 (human)
# Assay: cell-based or functional assay
CDC % Relative activity [%],CDC EC50 [µg/mL],Binder
135,1.42,B1
136,1.93,B2
285,0.909,B3
87.9,2.97,B4
55.6,4.7,B5
144,1.8,B6
10.4,26.3,B7
82.2,3.31,B8
68.3,3.98,B9
849,0.308,B10
33.5,7.78,B11
70.9,3.84,B12
109,2.5,B13
131,1.98,B14
678,0.402,B15
101,2.57,B16
143,1.83,B17
300,0.872,B18
577,0.472,B19
23.9,10.9,B20
28.5,9.56,B21
594,0.458,B22
60.4,4.32,B23
755,0.346,B24
600,0.319,B25
0.08,3220,B26
125,2.07,B27
84.5,2.27,B28
5.43,47.6,B29
